B1: ATE1 (parent)
chain: YGSFHQQYWLDGKIIAVGVIDILP
B2: KCNA1 (parent)
chain: LKASMRELGLLIFFLFIGVILFSS

Variants of: B1
Test: protein stability index of a GFP-peptide fusion (GPS, HEK-293T) (PSI 1-6); higher = more stable
Settings: c terminus: a fixed tail appended
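Further: lentivirally expressed fusions sorted by FACS into six bins by GFP to DsRed ratio, PSI derived from sequencing read proportions per bin multiplied by bin number.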

Variant	protein stability index
YGSFHQQYWLDGKCIAVGVIDILP [I14C]	2.81
YGSFHQQYWLDGKYIAVGVIDILP [I14Y]	1.49
YGSFHQQYWLDGKAIAVGVIDILP [I14A]	3.24
YGSFHQQYWLDGKPIAVGVIDILP [I14P]	2.95
YGSFHQQYWLDGKMIAVGVIDILP [I14M]	4.33
YGSFHQQYWLDGKSIAVGVIDILP [I14S]	1.85
YGSFHQQYWLDGKKIAVGVIDILP [I14K]	2.41
YGSFHQQYWLDGKWIAVGVIDILP [I14W]	2.62
YGSFHQQYWLDGKNIAVGVIDILP [I14N]	4.29
YGSFHQQYWLDGKGIAVGVIDILP [I14G]	2.26
YGSFHQQYWLDGKTIAVGVIDILP [I14T]	2.75
YGSFHQQYWLDGKQIAVGVIDILP [I14Q]	2.72
YGSFHQQYWLDGKEIAVGVIDILP [I14E]	2.66
YGSFHQQYWLDGKIIAVGVIDELP [I22E]	3.75
YGSFHQQYWLDGKIIAVGVIDMLP [I22M]	3.15
YGSFHQQYWLDGKIIAVGVIDDLP [I22D]	2.81
YGSFHQQYWLDGKIIAVGVIDQLP [I22Q]	2.42
YGSFHQQYWLDGKIIAVGVIDFLP [I22F]	2.93
YGSFHQQYWLDGKIIAVGVIDRLP [I22R]	2.18
YGSFHQQYWLDGKIIAVGVIDALP [I22A]	3.85
YGSFHQQYWLDGKIIAVGVIDSLP [I22S]	3.81
YGSFHQQYWLDGKIIAVGVIDWLP [I22W]	2.77
YGSFHQQYWLDGKIIAVGVIDPLP [I22P]	3.32

Variant	protein stability index
YGSFHQQYWLDGKIIAVGVIDTLP [I22T]	1.74
YGSFHQQYWLDGKIIAVGVIDVLP [I22V]	2.14
YGSFHQQYWLDGKIIAVGVIDHLP [I22H]	2.9
YGSFHQQYWLDGKIIAVGVIDYLP [I22Y]	2.23
YGSFHQQYWLDGKIIAVGVIDKLP [I22K]	1.43
YGSFHQQYWLDGEIIAVGVIDILP [K13E]	2.45
YGSFHQQYWLDGLIIAVGVIDILP [K13L]	3.1
YGSFHQQYWLDGDIIAVGVIDILP [K13D]	2.19
YGSFHQQYWLDGFIIAVGVIDILP [K13F]	2.76
YGSFHQQYWLDGPIIAVGVIDILP [K13P]	2.99
YGSFHQQYWLDGTIIAVGVIDILP [K13T]	2.54
YGSFHQQYWLDGRIIAVGVIDILP [K13R]	2
YGSFHQQYWLDGNIIAVGVIDILP [K13N]	2.78
YGSFHQQYWLDGMIIAVGVIDILP [K13M]	3.74
YGSFHQQYWLDGVIIAVGVIDILP [K13V]	2.63
YGSFHQQYWLDGWIIAVGVIDILP [K13W]	1.94
YGSFHQQYWLDGIIIAVGVIDILP [K13I]	1.1
YGSFHQQYWLDGKIIAVGVIPILP [D21P]	2.97
YGSFHQQYWLDGKIIAVGVIQILP [D21Q]	3.26
YGSFHQQYWLDGKIIAVGVIMILP [D21M]	1.81
YGSFHQQYWLDGKIIAVGVICILP [D21C]	3.23
YGSFHQQYWLDGKIIAVGVIRILP [D21R]	3.36
YGSFHQQYWLDGKIIAVGVIWILP [D21W]	4.17

Variant	protein stability index
YGSFHQQYWLDGKIIAVGVIFILP [D21F]	4.18
YGSFHQQYWLDGKIIAVGVISILP [D21S]	3.23
YGSFHQQYWLDGKIIAVGVITILP [D21T]	3
YGSFHQQYWLDGKIIAVGVIYILP [D21Y]	1.97
YGSFHQQYWLDGKIIAVGVIEILP [D21E]	3.01
YGSFHQQYWLDGKIIAVGVIIILP [D21I]	2.97
YGSFHQQYWLDGKIIAVGVIVILP [D21V]	4.01
YGSFHQQYWLDGKIIAVGVINILP [D21N]	2.85
YGSFHQQYWLDGKISAVGVIDILP [I15S]	2.5
YGSFHQQYWLDGKIVAVGVIDILP [I15V]	4.05
YGSFHQQYWLDGKIFAVGVIDILP [I15F]	2.83
YGSFHQQYWLDGKIMAVGVIDILP [I15M]	2.51
YGSFHQQYWLDGKINAVGVIDILP [I15N]	2.59
YGSFHQQYWLDGKILAVGVIDILP [I15L]	2.75
YGSFHQQYWLDGKITAVGVIDILP [I15T]	3.23
YGSFHQQYWLDGKIKAVGVIDILP [I15K]	1.79
YGSFHQQYWLDGKIHAVGVIDILP [I15H]	3.57
YGSFHQQYWLDGKIAAVGVIDILP [I15A]	2.57
YGSFHQQYWLDGKIRAVGVIDILP [I15R]	1.91
YGSFHQQYWLDGKIEAVGVIDILP [I15E]	3.12
YGSFHQQYWLDGKICAVGVIDILP [I15C]	1.53
YGSFHQQYWLDGKIDAVGVIDILP [I15D]	2.53
YGSFHQQYWLDGKIYAVGVIDILP [I15Y]	2.45

Variant	protein stability index
YGSFHQQYWLDGKIGAVGVIDILP [I15G]	3.26
YGSFHQQYWLDGKIIAAGVIDILP [V17A]	3.66
YGSFHQQYWLDGKIIAMGVIDILP [V17M]	3.42
YGSFHQQYWLDGKIIACGVIDILP [V17C]	3.27
YGSFHQQYWLDGKIIAFGVIDILP [V17F]	4.21
YGSFHQQYWLDGKIIATGVIDILP [V17T]	3.29
YGSFHQQYWLDGKIIAIGVIDILP [V17I]	1.95
YGSFHQQYWLDGKIIAHGVIDILP [V17H]	3.08
YGSFHQQYWLDGKIIARGVIDILP [V17R]	3.21
YGSFHQQYWLDGKIIALGVIDILP [V17L]	2.42
YGSFHQQYWLDGKIIAWGVIDILP [V17W]	3
YGSFHQQYWLDGKIIANGVIDILP [V17N]	2.82
YGSFHQQYWLDGKIIADGVIDILP [V17D]	2.26
YGSFHQQYWLDGKIIAYGVIDILP [V17Y]	2.91
YGSFHQQYWLDGKIIAPGVIDILP [V17P]	1.66
YGSFHQQYWLDGKIIAVGVIDIIP [L23I]	2.34
YGSFHQQYWLDGKIIAVGVIDITP [L23T]	2.53
YGSFHQQYWLDGKIIAVGVIDIEP [L23E]	1.4
YGSFHQQYWLDGKIIAVGVIDIPP [L23P]	2.72
YGSFHQQYWLDGKIIAVGVIDIMP [L23M]	1.78
YGSFHQQYWLDGKIIAVGVIDIHP [L23H]	2
YGSFHQQYWLDGKIIAVGVIDIQP [L23Q]	3.64
YGSFHQQYWLDGKIIAVGVIDISP [L23S]	2.66

Variant	protein stability index
YGSFHQQYWLDGKIIAVGVIDIGP [L23G]	2.94
YGSFHQQYWLDGKIIAVGVIDIAP [L23A]	4.34
YGSFHQQYWLDGKIIAVGVIDIDP [L23D]	2.88
YGSFHQQYWLDGKIIAVGVIDIKP [L23K]	2.49
YGSFHQQYWLDGKIICVGVIDILP [A16C]	1.6
YGSFHQQYWLDGKIIPVGVIDILP [A16P]	2.38
YGSFHQQYWLDGKIIVVGVIDILP [A16V]	3.31
YGSFHQQYWLDGKIIMVGVIDILP [A16M]	2
YGSFHQQYWLDGKIIQVGVIDILP [A16Q]	3.07
YGSFHQQYWLDGKIIRVGVIDILP [A16R]	3.32
YGSFHQQYWLDGKIIYVGVIDILP [A16Y]	2.13
YGSFHQQYWLDGKIIFVGVIDILP [A16F]	2.21
YGSFHQQYWLDGKIIGVGVIDILP [A16G]	2.13
YGSFHQQYWLDGKIITVGVIDILP [A16T]	2.7
YGSFHQQYWLDGKIISVGVIDILP [A16S]	1.87
YGSFHQQYWLDGKIIAVGVIDILI [P24I]	2.73
YGSFHQQYWLDGKIIAVGVIDILG [P24G]	3.18
YGSFHQQYWLDGKIIAVGVIDILK [P24K]	1.04
YGSFHQQYWLDGKIIAVGVIDILL [P24L]	4.25
YGSFHQQYWLDGKIIAVGVIDILV [P24V]	3.01
YGSFHQQYWLDGKIIAVGVIDILA [P24A]	2.06
YGSFHQQYWLDGKIIAVGVIDILW [P24W]	3.2
YGSFHQQYWLDGKIIAVGVIDILQ [P24Q]	2.51

Variant	protein stability index
YGSFHQQYWLDGKIIAVGVIDILF [P24F]	1.69
YGSFHQQYWLDGKIIAVGVIDILM [P24M]	2.18
YGSFHQQYWLDGKIIAVGVIDILS [P24S]	1.79
YGSFHQQYWLDGKIIAVGVYDILP [I20Y]	1.81
YGSFHQQYWLDGKIIAVGVSDILP [I20S]	2.38
YGSFHQQYWLDGKIIAVGVLDILP [I20L]	3.46
YGSFHQQYWLDGKIIAVGVFDILP [I20F]	4.08
YGSFHQQYWLDGKIIAVGVADILP [I20A]	3.4
YGSFHQQYWLDGKIIAVGVDDILP [I20D]	2.41
YGSFHQQYWLDGKIIAVGVEDILP [I20E]	1.65
YGSFHQQYWLDGKIIAVGVCDILP [I20C]	1.22
YGSFHQQYWLDGKIIAVGVWDILP [I20W]	1.38
YGSFHQQYWLDGKIIAVGVRDILP [I20R]	2.48
YGSFHQQYWLDGKIIAVGVPDILP [I20P]	2.53
YGSFHQQYWLDGKIIAVGVMDILP [I20M]	2.59
YGSFHQQYWLDGKIIAVPVIDILP [G18P]	2.39
YGSFHQQYWLDGKIIAVIVIDILP [G18I]	3.47
YGSFHQQYWLDGKIIAVFVIDILP [G18F]	2.53
YGSFHQQYWLDGKIIAVKVIDILP [G18K]	3.6
YGSFHQQYWLDGKIIAVEVIDILP [G18E]	2.28
YGSFHQQYWLDGKIIAVRVIDILP [G18R]	3.77
YGSFHQQYWLDGKIIAVWVIDILP [G18W]	2.81
YGSFHQQYWLDGKIIAVYVIDILP [G18Y]	1.96

Variant	protein stability index
YGSFHQQYWLDGKIIAVCVIDILP [G18C]	4.11
YGSFHQQYWLDGKIIAVSVIDILP [G18S]	3.06
YGSFHQQYWLDGKIIAVAVIDILP [G18A]	3.13
YGSFHQQYWLDGKIIAVTVIDILP [G18T]	4.01
YGSFHQQYWLDGKIIAVQVIDILP [G18Q]	3.22
YGSFHQQYWLDGKIIAVLVIDILP [G18L]	1.9
YGSFHQQYWLDGKIIAVNVIDILP [G18N]	2.31
YGSFHQQYWLDGKIIAVGYIDILP [V19Y]	2.91
YGSFHQQYWLDGKIIAVGFIDILP [V19F]	3.06
YGSFHQQYWLDGKIIAVGLIDILP [V19L]	2.41
YGSFHQQYWLDGKIIAVGIIDILP [V19I]	2.64
YGSFHQQYWLDGKIIAVGTIDILP [V19T]	2.49
YGSFHQQYWLDGKIIAVGEIDILP [V19E]	1.71
YGSFHQQYWLDGKIIAVGDIDILP [V19D]	3.87
YGSFHQQYWLDGKIIAVGMIDILP [V19M]	2.91
YGSFHQQYWLDGKIIAVGWIDILP [V19W]	2.06
YGSFHQQYWLDGKIIAVGAIDILP [V19A]	2.67
YGSFHQQYWLDGKIIAVGKIDILP [V19K]	1.77
YGSFHQQYWLDGKIIAVGRIDILP [V19R]	2.92
YGSFHQQYWLDGKIIAVGQIDILP [V19Q]	2.97
YGSFHQQYWLDGKIIAVGPIDILP [V19P]	3.09
YGSFHQQYWLDGKIIAVGSIDILP [V19S]	2.97
YGSFHQQYWLDGKIIAVGCIDILP [V19C]	2.56

Variants of: B2
Test: as above
Settings: c terminus: a fixed tail appended

Variant	protein stability index
LEASMRELGLLIFFLFIGVILFSS [K2E]	3.11
LFASMRELGLLIFFLFIGVILFSS [K2F]	2
LCASMRELGLLIFFLFIGVILFSS [K2C]	1.28
LDASMRELGLLIFFLFIGVILFSS [K2D]	2.89
LIASMRELGLLIFFLFIGVILFSS [K2I]	2.79
LHASMRELGLLIFFLFIGVILFSS [K2H]	2.54
LAASMRELGLLIFFLFIGVILFSS [K2A]	3.41
LGASMRELGLLIFFLFIGVILFSS [K2G]	2.49
RKASMRELGLLIFFLFIGVILFSS [L1R]	1.4
FKASMRELGLLIFFLFIGVILFSS [L1F]	2.12
YKASMRELGLLIFFLFIGVILFSS [L1Y]	2.76
SKASMRELGLLIFFLFIGVILFSS [L1S]	1.05
TKASMRELGLLIFFLFIGVILFSS [L1T]	1.84
HKASMRELGLLIFFLFIGVILFSS [L1H]	3.89
IKASMRELGLLIFFLFIGVILFSS [L1I]	2.29
DKASMRELGLLIFFLFIGVILFSS [L1D]	3.09
CKASMRELGLLIFFLFIGVILFSS [L1C]	2.3
EKASMRELGLLIFFLFIGVILFSS [L1E]	1.93
WKASMRELGLLIFFLFIGVILFSS [L1W]	1.56
KKASMRELGLLIFFLFIGVILFSS [L1K]	1.58
PKASMRELGLLIFFLFIGVILFSS [L1P]	1.82
VKASMRELGLLIFFLFIGVILFSS [L1V]	1.88
MKASMRELGLLIFFLFIGVILFSS [L1M]	2.27
AKASMRELGLLIFFLFIGVILFSS [L1A]	2.05
QKASMRELGLLIFFLFIGVILFSS [L1Q]	2.04
GKASMRELGLLIFFLFIGVILFSS [L1G]	3
NKASMRELGLLIFFLFIGVILFSS [L1N]	2.84

Source: the supplement of paper PMC10567573
